Laboratory results published in publication PMC3591176.

Biological target: Bbil-TX, basic PLA2 from Bothriopsis bilineata snake venom (Bothriopsis bilineata)

crotapotin isoform F3 from Crotalus durissus cascavella rattlesnake venom (natural protein)
inhibition of the PLA2 activity of Bbil-TX (substrate 4-nitro-3-octanoyloxy-benzoic acid) after preincubation of enzyme and inhibitor for 30 min at 37°C: 50%
